Measured values from WO2021223719A1 (dated 2021).

Biological target: FMC63-scFv-mFc protein
Assay: ELISA, plate coated with FMC63-scFv-mFc, biotin-labelled FMC63-scFv-mFc for detection

| Binder | EC50 [µg/mL] |
| --- | --- |
| mAb06 (26E7D2) (antibody, human IgG1, kappa, V domains shown, Tested as the murine hybridoma antibody) VH: QVQLQQPGAELVKPGASVKLSCKVSGYTFTSYWIHWVKQRPGRGLEWIGRIDPISGGANYNEKFKTKATLTVDKPSSTAYMQLSSLTSEDSAVYYCARWGGGDYWGHGTTLTVSS VL: not shown | 0.0299 |
| mAb02 (8B3H4) (antibody, human IgG1, kappa, V domains shown, Tested as the murine hybridoma antibody) VH: QVQVQQPGAELVKPGASVRLSCKASGYTFTTYWMHWVKQRPGQGLEWIGMIHPNSDSINYNEKFKSKATLIVDKSSSTFYMQLSSLTSEDSAVYYCARTDGYYAPYFAMDYWGQGTSVTVSS VL: DIQMTQTTSSLSASLGDRVTISCRASQDIRDNLNWYQQKPDGTVKLLIYYKSRSHSGVPSRFSGSGSGTDYSLTISNLEQEDIATYFCQQGNTLPFTFGSGTKLEIKR | 0.023 |
| mAb07 (27C5E11) (antibody, V domains shown) VH: QVQLQQPGAELVKPGASVKLSCKASGYTFTSYWMHWVKQRPGQGLEWIGMIHPNGDSTNYNEKFKTKATLTVDKSSSTAYMQLSSLTSEDSAVYYCARTDGYYAPYFAMDYWGQGTSVTVSS VL: DIQMTQSTSSLSASLGDRVTISCRASQDINNYLNWYQQKPDGTVKLLIYYTSRLHLGVPSRFSGSGSGTDYSLTISNLEQEDIATYFCQQGNTLPFTVGSGTKLEIK | 0.099 |

The remaining lines, values ahead:

| EC50 [µg/mL] | Binder |
| --- | --- |
| 0.113 | mAb020 (52H8C4) (antibody, human IgG1, kappa, V domains shown, Tested as the murine hybridoma antibody) VH: EVMLVESGGGLVKPGGSLKLSCAASGFTFSSYTMSWVRQTPEKRLEWVATITGGGGDTFYPDSVKGRFTISRDNAKNTLYLQVSSLRSEDTAVYHCARQYYDYDGGAMDYWGQGTSVTVSS VL: DIVLTQSPASLAVSLGQRAIISCKASQSVSFAGTGLMHWYQQKPGQQPKLLIYRASNLEAGVPTRFSGSGSRTDFTLNIHPVEEDDAATYYCQQSREYPRTFGGGTKLEIKR |
| 0.0512 | mAb023 (75H6C7) (antibody, V domains shown) VH: QAQLQQPGAELVMPGASVKLSCKASGYTFTNYWMNWMKQRPGQGLEWIGEIDPSDSDKNYNQKFKDKATLTVDKSSSTAYMQLSSLTSEDSAVYYCAGGYYGMDFWGQGTSVTVSS VL: DVVMTQTPLSLPVSLGDQASISCRSSQSLENSKGNTYLNWYVQKPGQSPQLLIYRVSTRFSGVLDRFSGSGSGTDFTLKISRVEAEDLGVYFCLQLTHVPFTFGSGTKLEIK |
